# Data as given in patent US20230093169A1, “COMBINATIONS OF ANTIBODY CONSTRUCTS AND INHIBITORS OF CYTOKINE RELEASE SYNDROME AND USES THEREOF” (AMGEN RESEARCH (MUNCH) GMBH, priority 2020, published 2023).
# Legend:
# [1] = tested on: VCAM-1 expression on CD31+HUVEC; test: Blinatumumab VCAM assay: VCAM-1 on CD31+ HUVEC in co-cultures with T cells and NALM-6; assay type: cell-based, human; settings: isolated T cells and NALM-6
# Protocol: FIG. 7. VCAM-1 Expression on HUVEC in AMG 103 Co-culture Assays: VCAM-1 expression by flow cytometry. […] expression levels are expressed as Median Fluorescence Intensity (MFI). VCAM-1 expressing HUVEC are expressed as percentage of CD31+HUVEC. Error bars indicate the standard error of the mean of duplicate measurements. Two PBMC donors were used in this experiment.
# The effect of blinatumomab (AMG 103) on T cell activation and the induction of VCAM-1 on endothelial cells was analyzed in co-cultures of HUVEC, isolated T cells and CD19-expressing NALM-6 target cells. VCAM-1 expression on CD31+HUVEC was analyzed by flow cytometry.
# TNF-α = biological target: T1, TNF-α (Homo sapiens, UniProt P01375); test: Etanercept prophylaxis for PSMA-targeting BiTE-related CRS in humans; assay type: in vivo
# T1 construct: endogenous in cells; host or cells: human subjects (clinical cohort), in vivo
# T1 sequence (P01375 77-233 limits assumed): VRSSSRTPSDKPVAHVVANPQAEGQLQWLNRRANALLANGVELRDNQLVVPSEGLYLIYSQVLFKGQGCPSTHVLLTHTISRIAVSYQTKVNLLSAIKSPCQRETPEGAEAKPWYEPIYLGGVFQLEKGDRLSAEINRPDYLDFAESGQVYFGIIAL
# Protocol: Etanercept premedication occurred within two days before BiTE administration to assess whether prophylaxis with the TNF-α inhibitor decreases the frequency and severity of CRS without compromising the efficacy of the BiTE. In an initial cohort of 6 to 8 subjects, the PSMA-targeting BiTE is administered. In addition to dexamethasone prophylaxis, subjects in the cohort received prophylaxis with etanercept (50 mg subcutaneously [SC]) two days prior to each dose of PSMA-targeting BiTE in the first administration cycle.
# Subject incidence of safety events, including dose-limiting toxicities (DLTs), serious adverse events (SAEs), and adverse events leading to treatment discontinuation or dose reduction, will be reviewed when at least 3 DLT-evaluable subjects complete the DLT window. Subjects receiving three individual increasing doses of PSMA-targeting BiTE with etanercept prophylaxis experienced 1 DLT/SAE (grade 3 (G3) thrombocytopenia), 1 SAE (Grade 3 (G3) Afib), 0 dose reductions, 1 discontinuation (tolerability), CRS events in cycle 1: 4 grade 2 (G2), no grade 3/4 (G3/4). […] In the latter group 1 DLT/SAE (G3 Hypoacusis), 2 SAE (grade 3 (G3) Pruritus, grade 2/3 (G2/G3) CRS), 2 dose reductions, 2 discontinuations (disease progression), and CRS events in cycle 1: 4 grade 1 (G1), 7 grade 2 (G2), 4 grade 3 (G3) were observed. In the etanercept prophylaxis group the PSMA-targeting BiTE was administered at the same dosages and frequency as in the group without etanercept prophylaxis.
# [2] = cited from earlier work
# [3] = tested on: MCP-1 release in HUVEC co-cultured with CD19-expressing NALM-6 cells and human PBMC; test: BiTE-induced MCP-1 release in co-culture of HUVEC, NALM-6 cells and human PBMC, with or without etanercept; assay type: cell-based; settings: HUVEC + NALM-6 + human PBMC; after 2 and 5 hours
# Excerpt: FIG. 6. AMG 103-mediated MCP-1 Secretion: MCP-1 concentrations in cell culture supernatants were quantified by the BD Cytometric CBA human MCP-1 Flex Set. Error bars in both graphs indicate the standard error of the mean of duplicate measurements.
# Human umbilical vein endothelial cells (HUVEC) were co-cultured with CD19-expressing NALM-6 cells and human PBMC and increasing concentrations of BiTE® antibody construct blinatumomab (AMG 103) against CD19 in the absence or presence of etanercept. MCP-1 concentrations were determined with the BD Cytometric CBA human MCP-1 Flex set system (BD, Germany after 2 and 5 hours, respectively according to the manufacturer's instructions and are shown in FIG. 6.
# [4] = subjects on PSMA-targeting BiTE with prophylaxis
substance,measurement,setting,value
AMG 103: BiTE® antibody construct against CD19,VCAM-1 expression on CD31+HUVEC,"[1]; co-cultures of HUVEC, flow cytometry",up-regulated
etanercept,CRS safety profile compared with no premedication or premedication with tocilizumab,TNF-α; PSMA-targeting BiTE at same dosages and frequency,improves CRS safety profile
same,"CRS events in cycle 1, grade 2 (G2)",TNF-α; [4],4
same,"CRS events in cycle 1, grade 3/4 (G3/4)",TNF-α; [4],no grade 3/4
same,SAE,TNF-α; [4],1
same,discontinuations,TNF-α; [4],1
same,dose reductions,TNF-α; [4],0
same,DLT/SAE,TNF-α; subjects on PSMA-targeting BiTE with prophylaxis (etanercept 50 mg SC two days prior; tocilizumab 8 mg/kg two hours before first dose),1
same,sensitivity of AMG 103-induced VCAM-1 up-regulation to TNF blockade,[1],sensitive
same,half-life,[2]; mean±SD,102 ± 30 h
same,"time of maximum concentration [tmax], mean±SD","[2]; subcutaneous, slow absorption",69 ± 34 h
same,effect on BiTE molecule (AMG 103) induced MCP-1 release,[3],Blocked
"tocilizumab: monoclonal antibody that competes with the binding of IL-6 to its receptor, IL-6R","CRS events in cycle 1, grade 1 (G1)",TNF-α; in vivo,4
same,"CRS events in cycle 1, grade 2 (G2)",TNF-α; in vivo,7
same,"CRS events in cycle 1, grade 3 (G3)",TNF-α; in vivo,4
same,SAE,TNF-α; in vivo,2
same,discontinuations,TNF-α; in vivo,2
same,dose reductions,TNF-α; in vivo,2
